Assay results taken from patent US20140348819A1, “Methods of Treating Cancer” (Dana-Farber Cancer Institute, Inc., priority 2011, published 2014).

System: six V600E BRAF melanoma cell lines
Experiment: Screening of recombinant RTK ligands for ability to confer resistance to BRAFi (PLX4720) or MEKi (PD184352) (Table 4)
Assay type: cell-based, human
Parameters: ability of recombinant RTK ligand to confer resistance / ability of recombinant RTK ligand to confer resistance (screening value): scale not given here
Method: HGF is the only one that can substantially confer drug resistance to the cell lines.
The complexity of the tumor microenvironment is much greater than an in vitro co-culture system. Therefore, the inventors explored whether the activation of other RTKs could result in a similar resistance as that observed with the activation of MET. To this end, six V600E BRAF melanoma cell lines were tested for their resistance to either BRAFi (PLX4720) or MEKi (PD184352) after the addition of 22 RTK ligands that have the potential of activating almost all known RTKs. […] The activation of a selected subset of these RTKs was confirmed by western blotting and by high throughput tyrosine kinase phosphorylation profiling.

B1: Angiopoietin-1 (protein, UniProt Q15389 16-498, looked up)
Angiopoietin-1: HIGCSNQRRSPENSGRRYNRIQHGQCAYTFILPEHDGNCRESTTDQYNTNALQRDAPHVEPDFSSQKLQHLEHVMENYTQWLQKLENYIVENMKSEMAQIQQNAVQNHTATMLEIGTSLLSQTAEQTRKLTDVETQVLNQTSRLEIQLLENSLSTYKLEKQLLQQTNEILKIHEKNSLLEHKILEMEGKHKEELDTLKEEKENLQGLVTRQTYIIQELEKQLNRATTNNSVLQKQQLELMDTVHNLVNLCTKEGVLLKGGKREEEKPFRDCADVYQAGFNKSGIYTIYINNMPEPKKVFCNMDVNGGGWTVIQHREDGSLDFQRGWKEYKMGFGNPSGEYWLGNEFIFAITSQRQYMLRIELMDWEGNRAYSQYDRFHIGNEKQNYRLYLKGHTGTAGKQSSLILHGADFSTKDADNDNCMCKCALMLTGGWWFDACGPSNLNGMFYTAGQNHGKLNGIKWHYFKGPSYSLRSTTMMIRPLDF
For B1, the “ability of recombinant RTK ligand to confer resistance” value (shortened to “ability of recombinant RTK ligand”) (A2058, PD184352 - 1 uM, ligand 1.56 ng/ml) was 1.02, the “ability of recombinant RTK ligand” value (A2058, PD184352 - 1 uM, ligand 6.25 ng/ml) was 1.03 and the “ability of recombinant RTK ligand” value (A2058, PD184352 - 1 uM, ligand 25 ng/ml) was 0.96. The “ability of recombinant RTK ligand” value (A2058, PD184352 - 1 uM, ligand 100 ng/ml) was 0.99, the “ability of recombinant RTK ligand” value (A2058, PD184352 - 1 uM, ligand 400 ng/ml) was 0.90 and the “ability of recombinant RTK ligand” value (A2058, PLX4720 - 2 uM, ligand 1.56 ng/ml) was 1.02. The “ability of recombinant RTK ligand” value (A2058, PLX4720 - 2 uM, ligand 6.25 ng/ml) was 1.02, the “ability of recombinant RTK ligand” value (A2058, PLX4720 - 2 uM, ligand 25 ng/ml) was 0.91 and the “ability of recombinant RTK ligand” value (A2058, PLX4720 - 2 uM, ligand 100 ng/ml) was 0.97. The “ability of recombinant RTK ligand” value (A2058, PLX4720 - 2 uM, ligand 400 ng/ml) was 0.96, the “ability of recombinant RTK ligand” value (C32, PD184352 - 1 uM, ligand 1.56 ng/ml) was 1.08 and the “ability of recombinant RTK ligand” value (C32, PD184352 - 1 uM, ligand 6.25 ng/ml) was 1.07. For the same molecule, the “ability of recombinant RTK ligand” value (C32, PD184352 - 1 uM, ligand 25 ng/ml) was 1.02, the “ability of recombinant RTK ligand” value (C32, PD184352 - 1 uM, ligand 100 ng/ml) was 1.07 and the “ability of recombinant RTK ligand” value (C32, PD184352 - 1 uM, ligand 400 ng/ml) was 0.98. The “ability of recombinant RTK ligand” value (C32, PLX4720 - 2 uM, ligand 1.56 ng/ml) was 1.20, the “ability of recombinant RTK ligand” value (C32, PLX4720 - 2 uM, ligand 6.25 ng/ml) was 1.09 and the “ability of recombinant RTK ligand” value (C32, PLX4720 - 2 uM, ligand 25 ng/ml) was 1.14. The “ability of recombinant RTK ligand” value (C32, PLX4720 - 2 uM, ligand 100 ng/ml) was 1.08, the “ability of recombinant RTK ligand” value (C32, PLX4720 - 2 uM, ligand 400 ng/ml) was 0.99 and the “ability of recombinant RTK ligand” value (Colo 829, PD184352 - 1 uM, ligand 1.56 ng/ml) was 0.94. For the same molecule, the “ability of recombinant RTK ligand” value (Colo 829, PD184352 - 1 uM, ligand 6.25 ng/ml) was 0.97, the “ability of recombinant RTK ligand” value (Colo 829, PD184352 - 1 uM, ligand 25 ng/ml) was 0.97 and the “ability of recombinant RTK ligand” value (Colo 829, PD184352 - 1 uM, ligand 100 ng/ml) was 0.93. The “ability of recombinant RTK ligand” value (Colo 829, PD184352 - 1 uM, ligand 400 ng/ml) was 0.97, the “ability of recombinant RTK ligand” value (Colo 829, PLX4720 - 2 uM, ligand 1.56 ng/ml) was 0.93 and the “ability of recombinant RTK ligand” value (Colo 829, PLX4720 - 2 uM, ligand 6.25 ng/ml) was 0.97. For the same molecule, the “ability of recombinant RTK ligand” value (Colo 829, PLX4720 - 2 uM, ligand 25 ng/ml) was 0.95, the “ability of recombinant RTK ligand” value (Colo 829, PLX4720 - 2 uM, ligand 100 ng/ml) was 0.94 and the “ability of recombinant RTK ligand” value (Colo 829, PLX4720 - 2 uM, ligand 400 ng/ml) was 1.05. The “ability of recombinant RTK ligand” value (G-361, PD184352 - 1 uM, ligand 1.56 ng/ml) was 0.98, the “ability of recombinant RTK ligand” value (G-361, PD184352 - 1 uM, ligand 6.25 ng/ml) was 0.96 and the “ability of recombinant RTK ligand” value (G-361, PD184352 - 1 uM, ligand 25 ng/ml) was 0.92. The “ability of recombinant RTK ligand” value (G-361, PD184352 - 1 uM, ligand 100 ng/ml) was 0.95, the “ability of recombinant RTK ligand” value (G-361, PD184352 - 1 uM, ligand 400 ng/ml) was 0.75 and the “ability of recombinant RTK ligand” value (G-361, PLX4720 - 2 uM, ligand 1.56 ng/ml) was 1.02. For the same molecule, the “ability of recombinant RTK ligand” value (G-361, PLX4720 - 2 uM, ligand 6.25 ng/ml) was 0.96, the “ability of recombinant RTK ligand” value (G-361, PLX4720 - 2 uM, ligand 25 ng/ml) was 0.97 and the “ability of recombinant RTK ligand” value (G-361, PLX4720 - 2 uM, ligand 100 ng/ml) was 0.83. For the same molecule, the “ability of recombinant RTK ligand” value (G-361, PLX4720 - 2 uM, ligand 400 ng/ml) was 0.84, the “ability of recombinant RTK ligand” value (SK-MEL-5, PD184352 - 1 uM, ligand 1.56 ng/ml) was 1.03 and the “ability of recombinant RTK ligand” value (SK-MEL-5, PD184352 - 1 uM, ligand 6.25 ng/ml) was 0.93. For the same molecule, the “ability of recombinant RTK ligand” value (SK-MEL-5, PD184352 - 1 uM, ligand 25 ng/ml) was 0.95, the “ability of recombinant RTK ligand” value (SK-MEL-5, PD184352 - 1 uM, ligand 100 ng/ml) was 0.92 and the “ability of recombinant RTK ligand” value (SK-MEL-5, PD184352 - 1 uM, ligand 400 ng/ml) was 0.87. The “ability of recombinant RTK ligand” value (SK-MEL-5, PLX4720 - 2 uM, ligand 1.56 ng/ml) was 1.05, the “ability of recombinant RTK ligand” value (SK-MEL-5, PLX4720 - 2 uM, ligand 6.25 ng/ml) was 1.02 and the “ability of recombinant RTK ligand” value (SK-MEL-5, PLX4720 - 2 uM, ligand 25 ng/ml) was 0.98. For the same molecule, the “ability of recombinant RTK ligand” value (SK-MEL-5, PLX4720 - 2 uM, ligand 100 ng/ml) was 1.03, the “ability of recombinant RTK ligand” value (SK-MEL-5, PLX4720 - 2 uM, ligand 400 ng/ml) was 1.04 and the “ability of recombinant RTK ligand” value (SK-MEL-28, PD184352 - 1 uM, ligand 1.56 ng/ml) was 1.09. The “ability of recombinant RTK ligand” value (SK-MEL-28, PD184352 - 1 uM, ligand 6.25 ng/ml) was 1.04, the “ability of recombinant RTK ligand” value (SK-MEL-28, PD184352 - 1 uM, ligand 25 ng/ml) was 1.12 and the “ability of recombinant RTK ligand” value (SK-MEL-28, PD184352 - 1 uM, ligand 100 ng/ml) was 0.98. For the same molecule, the “ability of recombinant RTK ligand” value (SK-MEL-28, PD184352 - 1 uM, ligand 400 ng/ml) was 0.96, the “ability of recombinant RTK ligand” value (SK-MEL-28, PLX4720 - 2 uM, ligand 1.56 ng/ml) was 1.05 and the “ability of recombinant RTK ligand” value (SK-MEL-28, PLX4720 - 2 uM, ligand 6.25 ng/ml) was 0.96. For the same molecule, the “ability of recombinant RTK ligand” value (SK-MEL-28, PLX4720 - 2 uM, ligand 25 ng/ml) was 1.02, the “ability of recombinant RTK ligand” value (SK-MEL-28, PLX4720 - 2 uM, ligand 100 ng/ml) was 0.96 and the “ability of recombinant RTK ligand” value (SK-MEL-28, PLX4720 - 2 uM, ligand 400 ng/ml) was 0.99.
